# “And” between values parts separate entries of the source, which are not always exact repeats. Equal entries are not always repeated.
# Target: HeV-G (wild-type Hendra virus attachment glycoprotein G, soluble recombinant) (Hendra virus) (UniProt O89343)
# Assay: SEC; oligomeric states of the purified G protein (Supplementary Fig. 7)
# HeV-G (wild-type Hendra virus attachment glycoprotein G, soluble recombinant), sequence (O89343 71-604 limits assumed): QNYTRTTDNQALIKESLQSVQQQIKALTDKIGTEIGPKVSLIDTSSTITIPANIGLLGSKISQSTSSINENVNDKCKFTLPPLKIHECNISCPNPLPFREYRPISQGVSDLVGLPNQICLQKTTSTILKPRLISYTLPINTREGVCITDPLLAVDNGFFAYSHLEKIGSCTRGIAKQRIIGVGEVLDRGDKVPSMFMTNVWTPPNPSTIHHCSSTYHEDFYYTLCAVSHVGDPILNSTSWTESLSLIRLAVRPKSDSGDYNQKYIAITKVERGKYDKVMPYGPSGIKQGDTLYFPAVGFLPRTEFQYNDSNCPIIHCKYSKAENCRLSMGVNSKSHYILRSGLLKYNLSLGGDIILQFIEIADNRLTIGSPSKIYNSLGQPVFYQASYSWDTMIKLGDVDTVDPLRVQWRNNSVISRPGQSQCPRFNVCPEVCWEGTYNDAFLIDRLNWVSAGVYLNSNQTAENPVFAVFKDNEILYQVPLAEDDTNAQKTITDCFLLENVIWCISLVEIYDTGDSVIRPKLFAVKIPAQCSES
substance,measurement,value
"HeV-G (wild-type Hendra virus attachment glycoprotein G, soluble recombinant) (from UniProt O89343 1-604) (natural protein)",stoichiometry N,4 and 2

# — article PMC12394453
